Experimental data as given in US20070111265A1, “Ligands for mineralocorticoid receptor (MR) and methods for screening for or designing MR ligands” (Van Andel Research Institute, priority 2005, published 2007).
Entries after “also recorded” stand apart in the source; their conditions may differ. One block for each compound: values may come before it. No end group written: not given here.

Columns and labels:
MR = molecular target: T1, MR (Homo sapiens, UniProt P08235); assay: IC50 (µM)
T1 construct: receptor expression vector (pRS vector) encoding full-length GR and MR respectively (ATCC); host or cells: Cos-7
T1 sequence (P08235 whole entry, looked up): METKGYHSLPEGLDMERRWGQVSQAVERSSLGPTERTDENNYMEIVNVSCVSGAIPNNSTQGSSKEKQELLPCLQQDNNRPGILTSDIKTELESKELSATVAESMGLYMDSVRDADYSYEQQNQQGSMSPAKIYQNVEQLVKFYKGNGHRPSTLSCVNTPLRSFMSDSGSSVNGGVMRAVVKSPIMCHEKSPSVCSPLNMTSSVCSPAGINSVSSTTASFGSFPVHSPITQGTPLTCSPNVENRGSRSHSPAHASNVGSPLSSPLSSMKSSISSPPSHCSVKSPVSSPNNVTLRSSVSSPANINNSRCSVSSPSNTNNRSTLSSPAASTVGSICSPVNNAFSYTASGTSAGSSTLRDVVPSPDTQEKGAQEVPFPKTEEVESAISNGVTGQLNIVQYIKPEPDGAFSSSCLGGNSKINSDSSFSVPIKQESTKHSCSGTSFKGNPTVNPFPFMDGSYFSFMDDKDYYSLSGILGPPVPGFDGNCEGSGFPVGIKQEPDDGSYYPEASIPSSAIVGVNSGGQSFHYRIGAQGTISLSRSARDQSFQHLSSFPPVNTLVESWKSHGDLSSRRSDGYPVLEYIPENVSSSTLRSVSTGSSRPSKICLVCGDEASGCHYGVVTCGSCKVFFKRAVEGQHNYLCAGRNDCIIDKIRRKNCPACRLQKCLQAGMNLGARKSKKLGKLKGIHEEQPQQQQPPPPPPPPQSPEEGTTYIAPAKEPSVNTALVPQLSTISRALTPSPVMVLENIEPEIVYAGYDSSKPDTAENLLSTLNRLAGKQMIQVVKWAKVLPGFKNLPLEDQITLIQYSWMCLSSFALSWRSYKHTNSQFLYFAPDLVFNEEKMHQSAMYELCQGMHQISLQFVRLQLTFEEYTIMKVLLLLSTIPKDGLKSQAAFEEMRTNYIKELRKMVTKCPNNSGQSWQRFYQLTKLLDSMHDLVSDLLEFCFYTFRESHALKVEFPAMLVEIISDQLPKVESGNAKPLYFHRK
From the text: Table printed on a drawing sheet, FIG. 3D
Head of the field: IC50 (µM)
The patent's description of the figure: FIG. 3.
First copying reader's note: The head of the sequence column numbers the residue positions relative to the first leucine of the LXXLL motif; the last two rows are protein fragments given as residue ranges.

[1] = tested on: MR S810 mutated to leucine or methionine; conditions: Geller et al., 2000; cited from earlier work
[2] = molecular target: T2, purified MR LBD/corticosterone complex (Homo sapiens, UniProt P08235, C808S); assay: AlphaScreen binding of biotinylated coactivator/corepressor peptides (FIG. 1B); conditions: corticosterone-bound MR LBD
T2 construct: made in house; host or cells: E. coli BL21DE3 (pET24a)
T2 sequence (P08235 727-984 C808S): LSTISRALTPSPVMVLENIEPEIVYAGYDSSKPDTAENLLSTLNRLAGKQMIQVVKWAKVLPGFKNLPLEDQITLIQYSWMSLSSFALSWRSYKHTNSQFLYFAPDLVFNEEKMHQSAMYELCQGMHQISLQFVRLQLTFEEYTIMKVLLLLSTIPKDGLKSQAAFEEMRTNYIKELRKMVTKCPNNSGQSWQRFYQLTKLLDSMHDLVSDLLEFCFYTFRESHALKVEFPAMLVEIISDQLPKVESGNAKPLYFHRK
Procedure: (B) Binding of various peptides containing coactivator or corepressor motifs to the purified MR LBD/corticosterone complex as measured by AlphaScreen assays. The background reading with the MR LBD alone is less than 200.
(§1) The binding of various peptide motifs to MR was determined by AlphaScreen assays using a hexahistidine detection kit from Perkin-Elmer. MR proteins were prepared as 6×His-GST fusion proteins for the assays.
The biotinylated peptides that were used in FIG. 1B are listed below in Table 1: […]

MR LBD = molecular target: T3, MR LBD (Homo sapiens, UniProt P08235, C808S); assay: Peptide profiling: unlabeled peptides compete off SRC2-3 binding to MR (FIG. 1C); conditions: unlabeled peptide 500 nM; 20 nM corticosterone or aldosterone
T3 construct: made in house; host or cells: E. coli BL21DE3 (pET24a)
T3 sequence (P08235 727-984 C808S): T2 sequence (P08235 727-984 C808S)
Procedure: The cofactors that contain a pair of LXXLL motifs with strong binding affinity to MR are boxed. All peptides have identical length of 15 residues except for SRC1-4 motif, which terminates at position +7 relative to the first leucines (L+1) in the LXXLL motif, and for the AR peptides and the corepressor motifs, which are longer than the coactivator motifs. Sequences of peptides are listed in experimental procedures.
as §1
The unlabeled peptides that were used in FIG. 1C are listed below in Table 2:
MR is the least studied member among the classical steroid hormone receptors and its physiological coactivators have not been clearly documented. To gain insights into which coactivator is physiologically relevant to MR, the inventors performed peptide profiling experiments using a panel of 38 unlabeled peptides to compete off the binding of the third LXXLL motif of SRC2 (also known as TIF2/GRIP1) to MR. […] The strong binding of the SRC1-4 motif and the PGC1 motifs is consistent with previous studies of the binding of LXXLL motifs to oxosteroid receptors (Hultman et al., 2005; Wu et al., 2004).

Compound: QEKHRILHKLLQNGN [SRC3-2]
IC50 (MR): 4600 nM

Compound: C[C@]12CCC(=O)C=C1CC[C@@H]1[C@@H]2C(=O)C[C@@]2(C)[C@H]1CC[C@]2(O)C(=O)CO [cortisone]
activation of S810-mutated MR [1]: activated efficiently

Compound: KENNALLRYLLDRDD [SRC3-3]
IC50 (MR): 1400 nM

Compound: CC(=O)[C@H]1CC[C@H]2[C@@H]3CCC4=CC(=O)CC[C@]4(C)[C@H]3CC[C@]12C [progesterone]
activation of S810-mutated MR [1]: activated efficiently; also recorded: allows the receptor to respond

Compound: PRQGSILYSLLTSSK (listed as Homo sapiens) [DAX1-3, 18]
inhibition of SRC2-3 binding to MR (MR LBD): most potent competitors

Compound: SGNLVPDAASKHKQLSELLRGGSG (listed as Homo sapiens) [CBP]
interaction with purified MR LBD [2]: weakly

Compound: WAEFSILRELLAQDV (listed as Homo sapiens) [PGC1β-2, 35]
inhibition of SRC2-3 binding to MR (MR LBD): most potent competitors

The next lines start with the values.

interaction with purified MR LBD [2]: strongly
Compound: AEEPSLLKKLLLAPA [PGC1]

interaction with purified MR LBD [2]: weakly
Compound: GHGEDFSKVSQNPILTSLLQITGN (listed as Homo sapiens) [TRAP220]

interaction with purified MR LBD [2]: failed to interact
Compound: GHSFADPASNLGLEDIIRKALMGSF [NCOR-2]
